Patent publication US20260092918A1

Target: H2-K (b) OVA 257-264 SIINFEKL peptide-MHC (mouse) (UniProt P01901)
Assay: cell-based or functional assay

UniProt P01901, sequence (P01901 22-305 limits assumed): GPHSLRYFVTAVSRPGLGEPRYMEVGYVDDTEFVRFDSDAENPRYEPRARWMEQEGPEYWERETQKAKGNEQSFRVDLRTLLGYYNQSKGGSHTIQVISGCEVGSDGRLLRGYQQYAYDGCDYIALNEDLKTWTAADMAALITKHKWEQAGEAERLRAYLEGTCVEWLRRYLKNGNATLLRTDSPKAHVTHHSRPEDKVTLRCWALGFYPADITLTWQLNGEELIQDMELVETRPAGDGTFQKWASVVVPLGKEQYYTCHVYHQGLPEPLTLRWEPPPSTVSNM

TCR tension signal, OT1 T-cells cultured in ACM relative to UCM (decrease): 37 % decrease | TCR tension signal, OT1 T-cells cultured in SCM relative to UCM (increase): 1240 % increase
Substance: OT-1 TCR on OT-1 T-cells
